Data published in patent US6699677 (CHEMOCENTRYX, dated 2004).

Tests used:
[1] = target: T1, CCR4 on transfected mouse myeloma NSO cells (UniProt P51679 1-360, limits assumed); experiment: adhesion of receptor-expressing NSO cells to immobilized stalkokine
T1 construct: whole, on cells; also called CCR4-NSO; CCR4 NSO cells
T1 sequence (looked up): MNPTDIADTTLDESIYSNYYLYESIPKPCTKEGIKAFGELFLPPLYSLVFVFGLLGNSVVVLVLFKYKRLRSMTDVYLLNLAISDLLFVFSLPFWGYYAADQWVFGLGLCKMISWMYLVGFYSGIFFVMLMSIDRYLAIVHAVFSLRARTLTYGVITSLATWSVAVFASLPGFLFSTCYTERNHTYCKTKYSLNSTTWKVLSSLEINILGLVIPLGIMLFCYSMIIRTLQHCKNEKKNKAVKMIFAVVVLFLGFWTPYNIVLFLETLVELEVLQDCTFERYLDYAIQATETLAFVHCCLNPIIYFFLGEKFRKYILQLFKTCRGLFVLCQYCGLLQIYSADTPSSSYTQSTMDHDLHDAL

CCR4 on CEM cells [2] = target: T2, CCR4 on CEM cells (UniProt P51679 1-360, limits assumed); experiment: displacement of radiolabeled MDC or TARC from CEM cells expressing CCR4 by stalkokine supernatant
T2 construct: whole, on cells; also called CEM cells expressing CCR4; CEM cells that express CCR4
T2 sequence (looked up): T1 sequence (looked up)

[3] = target: T3, human CCR10 (CCX CKR) with N-terminal FLAG epitope, stably expressed on HEK293 cells (human, UniProt Q9NPB9 1-350); experiment: adhesion of HEK293-CCR10 cells to stalkokine immobilized via anti-His antibody on chamber slides
T3 construct: also called HEK293-CCR10 cells; CCR10-expressing cells
T3 sequence: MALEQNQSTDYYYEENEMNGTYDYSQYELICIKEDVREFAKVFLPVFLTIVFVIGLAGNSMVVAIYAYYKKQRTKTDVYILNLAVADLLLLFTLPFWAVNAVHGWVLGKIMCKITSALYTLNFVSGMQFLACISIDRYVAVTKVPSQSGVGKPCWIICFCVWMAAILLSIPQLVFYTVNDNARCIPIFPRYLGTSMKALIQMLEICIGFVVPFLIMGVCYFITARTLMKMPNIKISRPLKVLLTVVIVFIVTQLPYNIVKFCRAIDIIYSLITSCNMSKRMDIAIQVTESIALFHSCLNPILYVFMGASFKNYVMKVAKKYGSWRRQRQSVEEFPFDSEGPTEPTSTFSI

[4] = target: T4, CCR7 on transfected mouse myeloma NSO cells (UniProt P32248 25-378, limits assumed); experiment: adhesion of receptor-expressing NSO cells to immobilized stalkokine
T4 construct: whole, on cells; also called CCR7-NSO
T4 sequence (looked up): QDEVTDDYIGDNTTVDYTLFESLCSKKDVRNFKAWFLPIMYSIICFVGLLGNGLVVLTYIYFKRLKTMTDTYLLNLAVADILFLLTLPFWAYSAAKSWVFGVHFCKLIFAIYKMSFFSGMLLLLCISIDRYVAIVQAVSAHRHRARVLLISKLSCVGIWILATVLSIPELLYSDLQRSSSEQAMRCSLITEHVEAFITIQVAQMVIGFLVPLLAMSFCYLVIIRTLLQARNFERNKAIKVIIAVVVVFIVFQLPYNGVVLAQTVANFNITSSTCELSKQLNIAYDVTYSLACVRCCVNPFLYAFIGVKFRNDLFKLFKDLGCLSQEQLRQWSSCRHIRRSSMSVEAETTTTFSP

[5] = target: T5, CCR8 on transfected mouse myeloma NSO cells (UniProt P51685 1-355, limits assumed); experiment: as above
T5 construct: whole, on cells; also called CCR8-NSO
T5 sequence (P51685 whole entry): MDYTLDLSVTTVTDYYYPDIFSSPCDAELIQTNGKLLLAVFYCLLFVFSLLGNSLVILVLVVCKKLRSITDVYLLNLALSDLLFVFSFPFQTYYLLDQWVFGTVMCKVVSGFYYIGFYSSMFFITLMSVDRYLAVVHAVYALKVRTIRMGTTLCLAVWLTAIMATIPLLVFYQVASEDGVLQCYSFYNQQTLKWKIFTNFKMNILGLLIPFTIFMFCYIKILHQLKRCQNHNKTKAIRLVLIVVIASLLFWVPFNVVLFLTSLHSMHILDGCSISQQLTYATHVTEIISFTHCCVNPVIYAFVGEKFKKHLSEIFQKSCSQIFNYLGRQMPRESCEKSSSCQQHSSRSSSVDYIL

[6] = target: T3, human CCR10 (CCX CKR) with N-terminal …; experiment: homologous competition, radiolabeled TECK with cold TECK on cells
[7] = target: T3, human CCR10 (CCX CKR) with N-terminal …; experiment: homologous competition, radiolabeled ELC with increasing unlabeled ELC on cells
[8] = target: T1, CCR4 on transfected mouse myeloma NSO …; experiment: preincubation of CCR4-NSO cells with 10 ug/ml soluble chemokine, then adhesion to immobilized MDC-FRAC or TARC-FRAC
CCR4 on CEM cells [9] = target: T2, CCR4 on CEM cells; experiment: displacement of radiolabeled MDC or TARC from CEM cells expressing CCR4 by soluble MDC
[10] = target: T3, human CCR10 (CCX CKR) with N-terminal …; experiment: summary of Example 1; assay for this ligand not described
[11] = target: T6, CCR1 on transfected mouse myeloma NSO cells (UniProt P32246 1-355, limits assumed); experiment: adhesion of receptor-expressing NSO cells to immobilized stalkokine
T6 construct: whole, on cells; also called CCR1-NSO
T6 sequence (looked up): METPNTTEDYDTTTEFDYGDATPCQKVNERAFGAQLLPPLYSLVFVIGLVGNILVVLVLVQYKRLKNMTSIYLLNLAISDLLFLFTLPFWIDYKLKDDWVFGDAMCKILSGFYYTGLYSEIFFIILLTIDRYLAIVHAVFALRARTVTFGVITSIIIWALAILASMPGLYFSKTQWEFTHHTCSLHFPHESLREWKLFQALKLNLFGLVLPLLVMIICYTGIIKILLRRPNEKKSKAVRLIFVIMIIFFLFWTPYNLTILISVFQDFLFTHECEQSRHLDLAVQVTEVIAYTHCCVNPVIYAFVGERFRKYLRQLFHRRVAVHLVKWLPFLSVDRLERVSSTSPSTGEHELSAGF

B1: MDC-FRAC (stalkokine with a fractalkine stalk and an MDC ligand domain) (ligand, human, not shown: small tags and cut ends)
chain: GPYGANMEDSVCCRDYVRYRLPLRVVKHFYWTSDSCPRPGVVLLTFRDKEICADPRVPWVKMILNKLSQEFGGTFEKQIGEVKPRTTPAAGGMDESVVLEPEATGESSSLEPTPSSQEAQRALGTSPELPTGVTGSSGTRLPPTPKAQDGGPVGTELFRVPPVSTAATWQSSAPHQPGPSLWAEAKTSEAPSTQDPSTQASTASSPAPEENAPSEGQRVWGQGQSPRPENSLEREEMGPVPAHTDAFQDWGPGSMAHVSVVPVSSEGTPSREPVASGSWTPKAEEPIHATMDPQRLGVLITPVPDAQA
notes: mature; Used as cell supernatant, soluble (displacement, calcium flux) or immobilized through anti-His antibody (adhesion); also called MDC-SK; MDC-Stalkokine
binding result [1]: binds | binding result (CCR4 on CEM cells [2]): binds

B2: ELC-stalkokine (ELC ligand domain, human fractalkine mucin stalk, myc epitope and poly-histidine) (ligand, not shown: small tags and cut ends)
chain: GTNDAEDCCLSVTQKPIPGYIVRNFHYLLIKDGCRVPAVVFTTLRGRQLCAPPDQPWVERIIQRLQRTSAKMKRRSSEFGGTFEKQIGEVKPRTTPAAGGMDESVVLEPEATGESSSLEPTPSSQEAQRALGTSPELPTGVTGSSGTRLPPTPKAQDGGPVGTELFRVPPVSTAATWQSSAPHQPGPSLWAEAKTSEAPSTQDPSTQASTASSPAPEENAPSEGQRVWGQGQSPRPENSLEREEMGPVPAHTDAFQDWGPGSMAHVSVVPVSSEGTPSREPVASGSWTPKAEEPIHATMDPQRLGVLITPVPDAQA
notes: mature; also called ELC-SK; ELC-FRAC
binding result [3]: binds | binding result [4]: binds

B3: I309-FRAC (I309 stalkokine) (ligand, human, not shown: small tags and cut ends)
chain: KSMQVPFSRCCFSFAEQEIPLRAILCYRNTSSICSNEGLIFKLKRGKEACALDTVGWVQRHRKMLRHCPSKRKEFGGTFEKQIGEVKPRTTPAAGGMDESVVLEPEATGESSSLEPTPSSQEAQRALGTSPELPTGVTGSSGTRLPPTPKAQDGGPVGTELFRVPPVSTAATWQSSAPHQPGPSLWAEAKTSEAPSTQDPSTQASTASSPAPEENAPSEGQRVWGQGQSPRPENSLEREEMGPVPAHTDAFQDWGPGSMAHVSVVPVSSEGTPSREPVASGSWTPKAEEPIHATMDPQRLGVLITPVPDAQA
notes: mature; also called I309 (stalkokine form); 1309-FRAC
binding result [5]: binds

B4: SLC-FRAC (SLC stalkokine) (ligand, human, not shown: small tags and cut ends)
chain: SDGGAQDCCLKYSQRKIPAKVVRSYRKQEPSLGCSIPAILFLPRKRSQAELCADPKELWVQQLMQHLDKTPSPQKPAQGCRKDRGASKTGKKGKGSKGCKRTERSQTPKGPEFGGTFEKQIGEVKPRTTPAAGGMDESVVLEPEATGESSSLEPTPSSQEAQRALGTSPELPTGVTGSSGTRLPPTPKAQDGGPVGTELFRVPPVSTAATWQSSAPHQPGPSLWAEAKTSEAPSTQDPSTQASTASSPAPEENAPSEGQRVWGQGQSPRPENSLEREEMGPVPAHTDAFQDWGPGSMAHVSVVPVSSEGTPSREPVASGSWTPKAEEPIHATMDPQRLGVLITPVPDAQA
notes: mature; also called SLC (stalkokine form); 6Ckine
binding result [4]: no binding

B5: TECK, soluble recombinant native form chemokine (ligand, UniProt O15444 24-150, looked up)
chain: QGVFEDCCLAYHYPIGWAVLRRAWTYRIQEVSGSCNLPAAIFYLPKRHRKVCGNPKSREVQRAMKLLDARNKVFAKLHHNTQTFQAGPHAVKKLSSGNSKLSSSKFSNPISSSKRNVSLLISANSGL
notes: mature; Tracer was 125I-labeled TECK from Amersham; also called soluble TECK; cold TECK
binding result [6]: binds

B6: TARC-FRAC (stalkokine with a fractalkine stalk and a TARC ligand domain) (ligand, human, not shown: small tags and cut ends)
chain: ARGTNVGRECCLEYFKGAIPLRKLKTWYQTSEDCSRDAIVFVTVQGRAICSDPNNKRVKNAVKYLQSLERSEFGGTFEKQIGEVKPRTTPAAGGMDESVVLEPEATGESSSLEPTPSSQEAQRALGTSPELPTGVTGSSGTRLPPTPKAQDGGPVGTELFRVPPVSTAATWQSSAPHQPGPSLWAEAKTSEAPSTQDPSTQASTASSPAPEENAPSEGQRVWGQGQSPRPENSLEREEMGPVPAHTDAFQDWGPGSMAHVSVVPVSSEGTPSREPVASGSWTPKAEEPIHATMDPQRLGVLITPVPDAQA
notes: mature; Used as cell supernatant, soluble (displacement, calcium flux) or immobilized through anti-His antibody (adhesion); also called TARC-SK; TARC-Stalkokine
binding result [1]: binds | binding result (CCR4 on CEM cells [2]): binds

B7: ELC, soluble recombinant native form chemokine (ligand, UniProt Q99731 22-98, looked up)
chain: GTNDAEDCCLSVTQKPIPGYIVRNFHYLLIKDGCRVPAVVFTTLRGRQLCAPPDQPWVERIIQRLQRTSAKMKRRSS
notes: mature; also called soluble ELC; soluble native ELC
binding result [7]: binds

B8: TARC, soluble chemokine (ligand, human, UniProt Q92583 24-94, looked up)
chain: ARGTNVGRECCLEYFKGAIPLRKLKTWYQTSEDCSRDAIVFVTVQGRAICSDPNNKRVKNAVKYLQSLERS
notes: Also used radiolabeled as tracer on CEM cells; also called soluble TARC; radiolabeled TARC
binding result [8]: binds

B9: MDC, soluble chemokine (ligand, human, UniProt O00626 25-93, looked up)
chain: GPYGANMEDSVCCRDYVRYRLPLRVVKHFYWTSDSCPRPGVVLLTFRDKEICADPRVPWVKMILNKLSQ
notes: Also used radiolabeled as tracer on CEM cells; also called MDC-CK; soluble MDC
binding result (CCR4 on CEM cells [9]): binds | binding result [8]: binds

B10: vMIPII (ligand)
chain: GDTLGASWHRPDKCCLGYQKRPLPQVLLSSWYPTSQLCSKPGVIFLTKRGRQVCADKSKDWVKKLMQQLPVTAR
binding result [10]: binds

B11: MCP3-FRAC (MCP3 stalkokine) (ligand)
chain: not shown
notes: mature; also called MCP3 (stalkokine form); MCP3 tethered ligand; not shown: polylinker residues
binding result [11]: binds
